# Measured values as given in the nanobody polyreactivity screen of Harvey et al. (2022).
# Assay: yeast display, Sf9 membrane polyspecificity reagent, FACS + sequencing; frameworks hold sequencing errors
# Outline: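 After 36–48 hours of galactose induction, yeast (Saccharomyces cerevisiae BJ5465) displaying a synthetic nanobody library were stained at 4 °C for 1 hour with 10% biotinylated, detergent-solubilized Sf9 membrane reagent. Streptavidin microbeads enriched the stained cells before FACS sorting into low and high (top ~1%) gates on anti-HA and streptavidin fluorescence. Each clone's polyreactivity label reflects its gate of origin.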
row,Sequence,polyreactivity (PSR sort gate)
1,QVQLVESGGGLVQAGGSLRLSCAASGLTFGDYSMGWYRQAPGKERELVAAITWSGASTYYADSVKGRFTISRDNGMNTVYLQMNSLKPEDTAVYYCAAERTPSYRAYDYWGQGTQVTVSS,low polyreactivity
2,QVQLVESGGGLVQAGGSLRLSCAASGLTFGDYVMGWYRQAPGKERELVATITSDGGTTYADSVKGRFTISRDNAKNTVYLQMNSLKPEVTAVYYCYADAVVDNYVGFSAAGFDYWGQGTQVTVSS,low polyreactivity
3,QVQLVESGGGLVQAGGSLRLSCAASGLTFGFYAMGWYRQAPGKERELVAGISNGGSTNYADSVKGRFTISRDNAKNTVYLQMNSLKPEDTAVYYCAARLYARRLYDYWGQRTQVTVSS,low polyreactivity
4,QVQLVESGGGLVQAGGSLRLSCAASGLTFGGNAMGWYRQAPGKERELVAAISWSDDTTDYADSVKGRLTISRDNAKNTVYLQMNSLKPEDTAVYYCAARLPFEHVDYWGQGTQVTVSS,low polyreactivity
5,QVQLVESGGGLVQAGGSLRLSCAASGLTFGHYAMGWYRQAPGKERELVATISSRGVSTRYADSVKGRFTISRDNAKNTVYLQMNSLKPEDTAVYYCNARDYTWGKYYSSKIGYYYWGQGTQVTVSS,high polyreactivity
6,QVQLVESGGGLVQAGGSLRLSCAASGLTFGLNAMGWYRQAPGKERELVAAITWSGGSTYYADSVKGRFTISRDNAKNTVYLQMNSLKPEDTAVYYCATDNWSVNGGYNYWGQGTQVTVSS,low polyreactivity
7,QVQLVESGGGLVQAGGSLRLSCAASGLTFGPYAMGWYRQAPGKERELVAAITSGGYTNYADSVKGRFTISRDNAMNTVYLQMNSLKPEDTAVYFCATSYYLAYRSITPYDYWGQGTQVTVSS,low polyreactivity
8,QVQLVESGGGLVQAGGSLRLSCAASGLTFGRYAMGWYRPAPGKERELVAAISSGGSTYYADSVKGRFTISRDNAKNTVYLQMNSLKPEDTAVYYCAADYVGWYFVSGRDYWGQGTQVTVSS,low polyreactivity
9,QVQLVESGGGLVQAGGSLRLSCAASGLTFGTNAMGWYIQAPGKERELVAAISTSSGSTYYADSVKGRFTISRDNAKNTVYLQMNSLKPEDTAVYYCAAVTVTKLSYYRYYYWGQGTQVTVSS,low polyreactivity
10,QVQLVESGGGLVQAGGSLRLSCAASGLTFGYYAMGWYRPAPGKEREFVAAISKSGGGTYYADSVKGRFTISRDNAKNTVYLQMNSLKPEDTAVYYCAARWFVGYNYWGQGTQVTVSS,high polyreactivity
11,QVQLVESGGGLVQAGGSLRLSCAASGLTFHVNAMGWYRQAPGKERELVAGITFSGGSTYYADSVKGRFTISRDNAKNTVYLLMNSLTPEDTAVYYCAADARFYAYYYWGQGTQVSVSS,low polyreactivity
12,QVQLVESGGGLVQAGGSLRLSCAASGLTFHYYAMGRYRQATGKERELVAVIRGSCTSTYYADSVKGRFTISRDNAKNTVYLQMNSLKPEDTAVYYFAAPYQYRRSGRVLGKYDSRGQGTQVTVSS,high polyreactivity
13,QVQLVESGGGLVQAGGSLRLSCAASGLTFIRYAMGWNRQAPGKERELVASISRGGSTYYADSVKGRFTISRDNAKNTVYLQMNSLKPEDTAVYYCAAQHVGHNYYNSGFYYWGQATQVTVSS,low polyreactivity
14,QVQLVESGGGLVQAGGSLRLSCAASGLTFIYKAMAWYRQAPGKERELVAAISGNGGDTYYADSVKGRFTISRDNAKKTVYLQMNSLKPEDTAVYYCAADYAYTPITWDEYWGQGTQVTVSS,low polyreactivity
15,QVQLVESGGGLVQAGGSLRLSCAASGLTFIYYSMGWYRQAPGKERELVAAISVSGGSTYYADSVKGRFTISRDNAKNTVYLQMNSLKPEYTAVYYCAGDWFVHKPRYQYSFDYWGQGTQVTVSS,low polyreactivity
16,QVQLVESGGGLVQAGGSLRLSCAASGLTFKRNAMGWYRPAPGKERELVAAIRYSTDSTNCADSVKGRFTISRDNAKNTVYLQMNSLKPEDTAVYYCAKDKQDYEYWGQGTQVTVSS,low polyreactivity

row,Sequence,polyreactivity (PSR sort gate)
1,QVQLVESGGGLVQAGGSLRLSCAASGLTFKYYAMGWYRQAPGKERELVAAITSTGGRTYYADSVKGRFTISRDNAKNTVYLQMNSLKPEDTAVYYCAKDTHWAYYWGQGTQVTVSS,low polyreactivity
2,QVQLVESGGGLVQAGGSLRLSCAASGLTFLDYAMGWYRPAPGKERELVAAITSGGSTNYADSVKGRFTISRDNAKNTVYLQMNSLKPEDTAVYYCATDLEVSAYDYWGQGTQVTVSS,low polyreactivity
3,QVQLVESGGGLVQAGGSLRLSCAASGLTFLNKAMGWYREAPGKERELVAAISRGGSTNYADSVKGRFTISRDNAKNTVYLQMNSLKPQDTAGYYCAAQIFESAYGMDYWGQGTQVTVSS,low polyreactivity
4,QVQLVESGGGLVQAGGSLRLSCAASGLTFLVYAMGWYRQAPGKERELVAAITSIGDSTFYADSVKGRFTISRDNAKNTVYLQMNSLKPEDSAVYYCNADGPAGDIKFTLMDYDYWGQGTQVTVSS,low polyreactivity
5,QVQLVESGGGLVQAGGSLRLSCAASGLTFLVYAMGWYRQAPGKERELVAAITSIGDSTFYADSVKGRFTISRDNAKNTVYLQMNSLKPEDTAVYYCNADGPAGDIKFTLLDYDYWGQGTQVTVSS,low polyreactivity
6,QVQLVESGGGLVQAGGSLRLSCAASGLTFLWYAMGWYRQAPGKERELVAAITSGGRTKYADSVKGRFTISRDNAKNTVYLQMNSLKPEDTAVYYCAAYTQWWGYDYWGQGTQVTVSS,high polyreactivity
7,QVQLVESGGGLVQAGGSLRLSCAASGLTFNDYAMGWYRQAPGKERELVAAISDIGGGTYYADSVKGRFTISRDNAKNTVYLQMNSLKPEETAVYYCAAEWQDWYGVDSWGQGTQVTVSS,low polyreactivity
8,QVQLVESGGGLVQAGGSLRLSCAASGLTFNHNAMGWYRQAPGKERELVAAISRRGGSTYYADSVKGRFTISRDNAKNTVYLQMNSLKPEDTAVYYCNAPVKVRATTNWEYDYWGQGTQVTVSS,high polyreactivity
9,QVQLVESGGGLVQAGGSLRLSCAASGLTFNRNAMGWYRQAPGKERELVATISGSGASTYYADSVKGRFTISRDYAKNTVYLQMNSLKPEDTAVYDCAARWHYSWGSYGFDYWGQGTQVTVSS,high polyreactivity
10,QVQLVESGGGLVQAGGSLRLSCAASGLTFNTYAMGWYRQAPGKERELVAAITKGGGRTYYADSVKGRFTISRDNAKNTVYLQMNSLKPEDTAVYYCAAYGYIYRVGYANGVVTSQDDYWGQGTQVTVSS,high polyreactivity
11,QVQLVESGGGLVQAGGSLRLSCAASGLTFNVNAMGWYRQAPGKERELVARINTSGGSTSYADSVKGRFTISRDNAKNTVYLQMNSLKPEDTAVYYCAADRARYYSEYDYWGQGTQVTVSS,low polyreactivity
12,QVQLVESGGGLVQAGGSLRLSCAASGLTFNVYAMGWYRQAPGKERELVASITKRGGSTYYADSVKGRFTISRDNAKNTVYLQMNSLKPEDTAVYYCAADGLTGSKYRATGYYWGQGTQVTVSS,high polyreactivity
13,QVQLVESGGGLVQAGGSLRLSCAASGLTFPRNTMGWYRQAPGKERELVAVISSSGGITYYADSVKGRFTISRDNAKNTVYLQMNSLKPEDTAVYYCAARTRVPRMGYWGQGTQVTVSS,high polyreactivity
14,QVQLVESGGGLVQAGGSLRLSCAASGLTFPSNAMGWYRQAPGKERELVAAITSVGITYYADSVKGRFTISRDNAKNTVYLQMNSLKPEDTAVYYCNAPPGGGWYARDDNWGQGTQVTVSS,low polyreactivity
15,QVQLVESGGGLVQAGGSLRLSCAASGLTFPWYAMGWYRQAPGKERELVASINSSTGSTYYADSVKGRFTISRDNAKNTVYLQMNSLKPEDTAVYYCAAVEYGNMDWGQGTQVTVSS,low polyreactivity
16,QVQLVESGGGLVQAGGSLRLSCAASGLTFPYYAMGWYRQAPGKERELVAAISNSGGSTYYADSVKGRFTISRDNAKNTVYLQMNIVKPEDTAVYYCAAYNSYSDYGYWGHGTQVTVSS,high polyreactivity
